Assay results: patent US20250042994A1 (HAINAN SIMCERE ZAIMING PHARMACEUTICAL, published 2025)
Blank lines part the entries; values can stand above or below the binder they belong to.

What was measured:
[1] = target: T1, human CD19 on Raji cells (human, UniProt P15391 20-556); assay: FACS on Raji cells
T1 construct: whole, on cells
T1 sequence (looked up): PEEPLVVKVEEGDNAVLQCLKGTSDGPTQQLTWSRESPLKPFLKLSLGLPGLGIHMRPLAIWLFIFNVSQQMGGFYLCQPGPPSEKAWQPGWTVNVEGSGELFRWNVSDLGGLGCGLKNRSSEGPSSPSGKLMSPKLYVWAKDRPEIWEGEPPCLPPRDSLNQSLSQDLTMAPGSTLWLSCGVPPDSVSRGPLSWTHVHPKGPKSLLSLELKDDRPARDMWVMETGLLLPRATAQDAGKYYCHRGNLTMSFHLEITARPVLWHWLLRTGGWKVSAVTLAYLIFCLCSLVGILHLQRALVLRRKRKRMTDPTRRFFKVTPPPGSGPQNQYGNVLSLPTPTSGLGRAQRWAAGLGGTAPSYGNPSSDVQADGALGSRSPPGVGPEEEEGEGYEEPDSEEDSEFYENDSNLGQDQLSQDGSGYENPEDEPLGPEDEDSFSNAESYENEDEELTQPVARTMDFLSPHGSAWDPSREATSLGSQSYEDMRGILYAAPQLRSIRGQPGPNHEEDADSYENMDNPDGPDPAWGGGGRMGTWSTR

[2] = target: T2, human CD19 on CHO-K1-human CD19 cells (human, UniProt P15391 20-556); assay: FACS on CHO-K1-human CD19 cells
T2 construct: whole, on cells; also called CHO-K1-human CD19-2C8
T2 sequence (looked up): T1 sequence (looked up)

[3] = target: T3, monkey CD19 on HEK293T-monkey CD19 cells (monkey); assay: FACS on HEK293T-monkey CD19 cells
T3 construct: whole, on cells
Outline: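 Cells blocked in PBS + 2% (w/w) BSA at 2×10⁶ cells/ml, then incubated with test antibody on ice for 2 h. After washes, binding read by flow cytometry as mean fluorescence intensity (MFI). EC50 from fitted MFI curves. Parental HEK293T cells run by the same method.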

[4] = target: T4, cynomolgus monkey CD19 on peripheral blood B cells (cynomolgus monkey (Macaca fascicularis), UniProt A0A2K5W8L9 20-557); assay: FACS, cynomolgus PBMC, CD20+ B cells
T4 construct: whole, on cells; also called cynomolgus monkey B cells
T4 sequence: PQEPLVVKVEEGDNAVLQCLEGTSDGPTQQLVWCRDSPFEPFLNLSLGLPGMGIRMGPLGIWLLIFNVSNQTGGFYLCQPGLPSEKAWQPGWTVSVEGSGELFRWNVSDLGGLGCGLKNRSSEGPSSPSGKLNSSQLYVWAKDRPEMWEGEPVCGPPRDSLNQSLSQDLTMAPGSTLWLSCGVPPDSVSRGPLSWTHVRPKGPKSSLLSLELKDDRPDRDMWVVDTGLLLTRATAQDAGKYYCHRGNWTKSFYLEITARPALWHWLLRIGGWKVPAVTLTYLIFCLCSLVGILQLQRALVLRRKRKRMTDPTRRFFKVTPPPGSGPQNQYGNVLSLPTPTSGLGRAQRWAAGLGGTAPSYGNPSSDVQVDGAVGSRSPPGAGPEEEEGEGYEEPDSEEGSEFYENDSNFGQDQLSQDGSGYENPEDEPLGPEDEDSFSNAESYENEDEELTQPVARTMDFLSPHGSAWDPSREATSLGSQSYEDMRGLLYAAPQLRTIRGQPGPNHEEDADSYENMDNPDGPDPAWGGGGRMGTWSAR

[5] = target: T4, cynomolgus monkey CD19 on peripheral …; assay: FACS, cynomolgus monkey PBMC, 1 nM antibody, co-stained with CD20 antibody
Protocol: The monkey peripheral blood mononuclear cells were extracted from fresh cynomolgus monkey peripheral blood (purchased from Shanghai Medicilon Inc.) according to the instructions of Ficoll-Paque Plus (purchased from GE Healthcae, catalog number: 171440-02). After the cell suspension was centrifuged, the cells were resuspended in PBS containing 1% BSA, and then the cells were counted. […] The mixture was incubated for 1 h at room temperature. After washing the cells three times, APC-labeled secondary antibody anti-human IgG Fc (catalog number: 409306, purchased from Biolegend) was added. After incubation at room temperature in the dark for 30 minutes, the cells were washed 5 times, gently resuspended with PBS containing 1% BSA, and detected and analyzed by FACS (FACS Canto™, purchased from BD Company), in which CD20 was used as a marker of B cells to gate the CD20-positive B cell population, the proportion of the chimeric antibody-labeled positive cells was analyzed, and the proportion of the chimeric antibody positive cell population to B cell population was calculated after treatments with the chimeric antibodies at the concentrations of 100 nM, 10 nM and 1 nM, respectively.

[6] = target: T5, monkey CD19 protein (monkey); assay: ELISA, coated monkey CD19 protein
T5 construct: also called monkey CD19-His protein
Protocol: (§1) Human CD19-his protein (purchased from ACROBiosystems, catalog number: CD9-H52H2) was diluted with PBS to a final concentration of 4 μg/mL, and then added to a 96-well ELISA plate at 100 μl/well. The plate was sealed with a plastic film and incubated overnight at 4° C., the plate was washed 2 times with PBS the next day, and then a blocking solution [PBS+2% (w/w) BSA] was added for blocking at room temperature for 2 h. The blocking solution was poured off, and 100 nM gradiently diluted CD19 chimeric antibody or control antibody was added at 50 μl/well. After incubation at 37° C. for 2 h, the plate was washed 3 times with PBS. […] TMB substrate was added at 50 μl/well, and incubated at room temperature for 10 min, and then a stop solution (1.0 N HCl) was added at 50 μl/well. The OD450 nm values were read by an ELISA microplate reader (Multimode Plate Reader, EnSight, purchased from Perkin Elmer).
(§2) In order to detect the species cross-binding activity of the chimeric antibodies, an ELISA plate was coated with commercial murine CD19 (ACROBiosystems, catalog number: 50510-M08H) and monkey CD19 (ACROBiosystems, catalog number: 90051-C08H), respectively, and the ELISA detection was performed according to the method in example 5.1.

[7] = target: T5, monkey CD19 protein; assay: ELISA on coated monkey CD19-His
Protocol: as §1, §2

- EC50 [1]: 1.31 nM
- Maximum mean fluorescence intensity [1]: 26100
- EC50 [2]: 1.09 nM
- Maximum mean fluorescence intensity [2]: 56700
- Maximum mean fluorescence intensity [3]: 81
- Proportion of chimeric antibody positive cells to B cells (%) at 1 nM [4]: 1%
- Proportion of chimeric antibody positive cells to B cells (%) at 10 nM [4]: 2%
- Proportion of chimeric antibody positive cells to B cells (%) at 100 nM [4]: 4%
- ratio of chimeric antibody-labeled positive cells to CD20 positive cells [5]: 2%
B1: F4.58.6 (antibody, human IgG1, V domains shown)
VH: QVQLQQPGAELVKPGASVKLSCKASGYTFTSYWMHWVKQRPGQGLEWIGEIDPSDSYSNYNQKFKGKATLTVDKSSSTAYMQLSSLTSEDSAVYYCARSNYGSSYGYFDVWGAGTTVTVSS
VL: QIVLTQSPAIMSASPGEKVTMTCSVSSSLSYMHWYQQKPGTSPKRWIYDTSKLASGVPARFSGSGSGTSYSLTISSMEAEDAATYYCHQRSSYPTFGGGTKLEIK
notes: human-murine chimeric antibody, human IgG1

- EC50 [1]: 2.46 nM
- Maximum mean fluorescence intensity [1]: 19100
- EC50 [2]: 1.35 nM
- Maximum mean fluorescence intensity [2]: 47500
- OD450 at 0.0001 nM [6]: 0.08 OD450
- OD450 at 0.001 nM [6]: 0.12 OD450
- OD450 at 0.01 nM [6]: 0.41 OD450
- OD450 at 0.10 nM [6]: 1.44 OD450
- OD450 at 1.00 nM [6]: 1.93 OD450
- OD450 at 10 nM [6]: 2.04 OD450
- OD450 at 100 nM [6]: 1.93 OD450
- EC50 [3]: 1.27 nM
- Maximum mean fluorescence intensity [3]: 112000
- Proportion of chimeric antibody positive cells to B cells (%) at 1 nM [4]: 23%
- Proportion of chimeric antibody positive cells to B cells (%) at 10 nM [4]: 65%
- Proportion of chimeric antibody positive cells to B cells (%) at 100 nM [4]: 92%
- EC50 (read off the curve) [7]: ~0.04 nM
B2: F3.124.7 (antibody, human IgG1, V domains shown)
VH: EVQLQQSGPVLVKPGASVKMSCKASGYTFTDYYMNWVKQRHGKSLEWIGISNPYNGGTSYNQKFKDKATLTVDKSSSTAYMELNSLTSEDSAVYYCAREGGTAQPTSGMDYWGQGTSVTVSS
VL: NIMMTQSPSSLAVSAGEKVTMSCKSSQSVLYSSNQKNYLAWYQQKPGQSPKLLIYWASTRESGVPDRFTGSGSGTDFTLTISSVQPEDPAVYYCHQYRSSYTFGGGTKLEIK
notes: as for B1
